Data set [1] concerns O=P(O)(O)OC[C@H]1O[C@H](OP(=O)(O)OP(=O)(O)O)[C@H](O)[C@@H]1O. In words: purified protein, by the assay type. Conditions: 25.0 °C. As for the experimental part:
(§1) Kinetics and thermal denaturation data were analysed by the nonlinear regression function of SigmaPlot 14.0 (SPSS Inc.). Thermal denaturation data were fitted to Eq. (1). Substrate saturation curves at a fixed concentration of the co-substrate were fitted to Eq. (2). Initial rate data at varying concentrations of HisZ were fitted to Eq. (3). The concentration of ATPPRT at any concentration of AbHisGS and AbHisZ was calculated according to Eq. (4). Histidine dose-response data were fitted to Eq. (5). Single-turnover data with WT-AbATPPRT isotopologues were fitted to Eq. (6). Plots of kcat ratios against relative viscosity were fitted to Eq. (7). Temperature-rate profile for AbHisGS was fitted to Eq. (8). Single-turnover data with R70A-AbATPPRT isotopologues were fitted to Eq. (9). In Eqs. […] While kcats for [^13C,^15N]AbHisGS and [^2H,^13C,^15N]AbHisGS are marginally lower than for unlabelled AbHisGS and [^15N]AbHisGS, the overlapping nature of most data points in Fig. 1c disagrees with distinguishable heavy-enzyme kinetic isotope effects on kcat (^HEkcat). […] This was further probed by pre-steady-state kinetics under multiple-turnover conditions. The AbHisGS reaction had been shown not to have a burst of product formation, which is reproduced here for unlabelled AbHisGS, whose traces overlap with those for [^2H,^13C,^15N]AbHisGS (Supplementary Fig. 5). S5 Supplementary Figure 4 Substrate saturation curves for unlabelled AbATPPRT with AbHisGS purified from cultures grown in M9 and M9 with high cell density compared with previously published data (reproduced here) for unlabelled AbATPPRT with AbHisGS purified from cultures grown in LB. For the M9 and M9 high cell density curves, all data points are shown for two independent measurements, except for the previously published LB curves, where data are the mean of two independent measurements. Lines are best fit of the data to equation (2): solid line for M9 high cell density curves, long-dashed line for M9 curves, and short-dashed line for previously published LB curves. Supplementary Figure 5 Rapid kinetics of PRATP formation at 25 °C by unlabelled AbHisGS and [2H,13C,15N]AbHisGS under multiple-turnover conditions. All traces are shown for eight replicates with each isotopologue.

For data set [2], the system named is Nc1ncnc2c1ncn2[C@@H]1O[C@H](COP(=O)(O)OP(=O)(O)OP(=O)(O)O)[C@@H](O)[C@H]1O. In words: purified protein, by the assay type. The following applies: 25.0 °C. The protocol:
as §1

Values joined by “and” are separate entries in the source; they are usually repeats but may differ in a detail not shown here. Equal values may be shown once.

On to AbHisGS (Acinetobacter baumannii ACICU), for which, in data set [1], the Km (commonly the concentration of substrate that gives half-maximal velocity) was 0.54 ± 0.04 mM and 0.33 ± 0.01 mM and 0.42 ± 0.02 mM; the kcat (as a rule, the maximal rate divided by the concentration of active sites) is 0.38 s⁻¹ and 0.34 s⁻¹; the kcat/Km (usually the turnover number divided by the Michaelis constant) was 700 M⁻¹ s⁻¹ and 1020 M⁻¹ s⁻¹ and 810 M⁻¹ s⁻¹. Moreover, in data set [2], the Km was 0.9 ± 0.1 mM and 0.8 ± 0.1 mM and 0.59 ± 0.03 mM; the kcat was 0.38 s⁻¹ and 0.34 s⁻¹; the kcat/Km is 420 M⁻¹ s⁻¹ and 580 M⁻¹ s⁻¹.

The record behind these values is paper PMC10998830.
